Data set [1] addresses T1, DOF3.4-ZF (Arabidopsis thaliana, UniProt Q39088 22-81).
T1 sequence: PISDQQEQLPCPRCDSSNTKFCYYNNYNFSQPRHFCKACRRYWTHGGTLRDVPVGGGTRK
The data set can be described thus: EMSA. A general note: Mobility shift assays separate free from complexed probe on a gel.

In data set [2] the target is T2, DOF5.8-ZF (Arabidopsis thaliana, UniProt Q9FGD6 24-83).
T2 sequence: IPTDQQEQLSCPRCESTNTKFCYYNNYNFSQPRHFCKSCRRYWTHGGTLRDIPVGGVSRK
The data set can be described thus: EMSA.

Data set [3] concerns the target T1, DOF3.4-ZF. Kind of data set: MST.
Data set [4] has as its target T2, DOF5.8-ZF. Kind of data set: MST.

B1: Control for double-motif probe (dsDNA)
DNA 1: AAATAATCATGCGATATTGCGAAATATATAAC
DNA 2: GTTATATATTTCGCAATATCGCATGATTATTT
Turning to B1, the binding result with DOF3.4-ZF [1] and with DOF5.8-ZF [2] was “no binding” each time.

B2: Double-motif probe, fluorescein (dsDNA)
DNA 1: AAATAATCATAAAGTATTAAAGTAATATATAC
DNA 2: GTATATATTACTTTAATACTTTATGATTATTT
Usually Kd stands for the equilibrium constant for the complex coming apart. With B2, the Kd was 2300 ± 1000 nM in the data set with DOF3.4-ZF [3] and 2500 ± 1000 nM with DOF5.8-ZF [4].

B3: Control for single-motif probe (dsDNA)
DNA 1: AATCCAGCGATGTAGAGGAG
DNA 2: CTCCTCTACATCGCTGGATT
In the case of B3, the binding result with DOF3.4-ZF [1] and with DOF5.8-ZF [2] was “no binding” each time.

The values are drawn from PMC6128974.
